WO2011161189A1 (dated 2011)

How the values were obtained:
[1] = molecular target: cynomolgus hepsin (cynomolgus monkey); assay: cell-based or functional assay
[2] = molecular target: T1, human hepsin (recombinant EE-tagged, amino acids 45-417, enzymatically active two-chain form) (human, UniProt P05981 45-417); assay: cell-based or functional assay
[3] = molecular target: T1, human hepsin (recombinant EE-tagged, …); assay: enzyme kinetics (Ac-KQLR-AMC hydrolysis after preincubation), fit to tight binding inhibitor equations of the mixed type; apparent Ki
[4] = molecular target: T1, human hepsin (recombinant EE-tagged, …); assay: SPR kinetics, antibody captured on CM5 chip, hepsin injected, 298 K
[5] = molecular target: T1, human hepsin (recombinant EE-tagged, …); assay: Biacore (SPR)
[6] = molecular target: mouse hepsin (mouse, UniProt O35453 60-436, limits assumed); assay: cell-based or functional assay
Sequence of mouse hepsin (O35453 60-436 limits assumed): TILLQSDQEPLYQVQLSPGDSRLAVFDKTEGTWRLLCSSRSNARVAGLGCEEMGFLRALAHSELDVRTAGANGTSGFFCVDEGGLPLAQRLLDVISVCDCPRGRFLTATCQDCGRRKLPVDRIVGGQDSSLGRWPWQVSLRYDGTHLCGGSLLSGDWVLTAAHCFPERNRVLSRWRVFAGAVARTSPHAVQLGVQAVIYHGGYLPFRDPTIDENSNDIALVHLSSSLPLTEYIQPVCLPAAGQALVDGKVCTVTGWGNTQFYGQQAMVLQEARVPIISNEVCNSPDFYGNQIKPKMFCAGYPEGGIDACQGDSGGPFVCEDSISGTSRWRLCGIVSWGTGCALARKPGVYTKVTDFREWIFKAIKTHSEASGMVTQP

T1 sequence (P05981 other isoform, or with tags, fused parts or gaps limits assumed): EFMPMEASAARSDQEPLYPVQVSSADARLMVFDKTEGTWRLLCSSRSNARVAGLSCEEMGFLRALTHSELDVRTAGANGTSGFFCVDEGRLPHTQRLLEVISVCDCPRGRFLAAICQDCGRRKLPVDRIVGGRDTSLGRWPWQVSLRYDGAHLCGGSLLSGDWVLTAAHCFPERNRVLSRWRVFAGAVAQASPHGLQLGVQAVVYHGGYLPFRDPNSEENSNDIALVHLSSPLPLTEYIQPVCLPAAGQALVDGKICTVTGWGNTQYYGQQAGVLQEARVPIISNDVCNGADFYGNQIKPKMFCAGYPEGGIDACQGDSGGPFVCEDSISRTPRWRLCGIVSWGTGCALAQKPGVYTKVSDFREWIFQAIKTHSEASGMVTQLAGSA

IC 50, cynomolgous hepsin assay (FRET peptide substrate) [1] [nM]	IC 50, human hepsin inhibition assay (FRET peptide substrate) [2] [nM]	inhibition increase compared to the chimeric antibody [2] [fold]	inhibition increase compared to the murine antibody [2] [fold]	Ki [3] [nM]	Kd [4] [nM]	IC 50 in enzymatic activity assay of human hepsin [2] [nM]	Kd [5] [nM]	IC 50 in enzymatic activity assay of murine hepsin [6] [nM]	Binder
–	–	–	–	–	–	7	22	–	Mab 2.3.35 (antibody, V domains shown, also called antibody 2.3.35) VH: QVQLQQSGPELVKPGASVKVSCKASGYTFTDFVINWVKQRTGQGLEWIGEIYPRSNSIYSNEKFKGKATLTTDKSSNTAYMQVSSLTSEDSAVYFCARGSGDYAMDYWGQGTSVTVSS VL: ENVLTQSPAIMSASPGEKVTMTCSASSSVTYMHWYQQKSSTSPKLWIYDTSKLASGVPGRFSGSGSGNSYSLTIRSMEAEDVATYFCFQGSGFPLTFGGGTKLEIK
–	–	–	–	–	31.5	14	4	> 200	Mab 2.7.35 (antibody, V domains shown, Mouse monoclonal antibody from Balb/c hybridoma; also called mouse Mab 2.7.35; mH35) VH: QIQLVQSGPELKKPGETVKISCKASGYTFTDYSMRWVKQAPGKGLKWMGWINTETGNPTYADDFKGRFAFSLETSASTAYLQINNLKNEDTARYFCARGFAYWGQGTLVTVSA VL: QAVVTQESALTTSPGETVTLTCRSSTGAVTTSNYANWVQEKPDHLFTGLIGDTNNRAPGVPARFSGSLIGDKAALTITGAQTEDEAIYFCALWYSNHFIFGSGTKVTVL

The next lines start with the binder.

Binder	IC 50, cynomolgous hepsin assay (FRET peptide substrate) [1] [nM]	IC 50, human hepsin inhibition assay (FRET peptide substrate) [2] [nM]	inhibition increase compared to the chimeric antibody [2] [fold]	inhibition increase compared to the murine antibody [2] [fold]	Ki [3] [nM]	Kd [4] [nM]	IC 50 in enzymatic activity assay of human hepsin [2] [nM]	Kd [5] [nM]	IC 50 in enzymatic activity assay of murine hepsin [6] [nM]
Mab55 (antibody, V domains shown, Humanized variant of Mab 2.7.35, stably expressed in CHO; also called hH35; humanized antibody Mab55) VH: QVQLVQSGSELKKPGASVKVSCKASGYTFTDYSMRWVRQAPGQGLEWMGWINTETGSPTYADDFKGRFVFSLDTSVSTAYLQISSLKAEDTAVYYCARGFAYWGQGTLVTVSS VL: QTVVTQEPSLTVSPGGTVTLTCRSSTGAVTTSNYANWVQQKPGQAFRGLIGDTNNRAPWTPARFSGSLLGGKAALTLSGVQPEDEAEYYCALWYSNHFIFGSGTKVTVL	0.99	1.02	6.7	14.7	0.39	7.1	–	–	–
Mab53 (antibody, V domains shown, Humanized variant of Mab 2.7.35) VH: QVQLVQSGAEVKKPGASVKVSCKASGYTFTDYSMRWVRQAPGQGLEWMGWINTETGNPAYAQKFQGRVTMTRDTSTSTVYMELSSLRSEDTAVYYCARGFAYWGQGTLVTVSS VL: QTVVTQEPSLTVSPGGTVTLTCRSSTGAVTTSNYANWVQQKPGQAFRGLIGDTNNRAPWTPARFSGSLLGGKAALTLSGVQPEDEAEYYCALWYSNHFIFGSGTKVTVL	–	–	–	–	–	36	–	–	–
